Assay results: patent publication US8357523B2, “Beta-glucosidase variant enzymes and related polynucleotides” (Codexis, Inc., priority 2009, dated 2013)
Numbering of substitutions follows the chain as printed.

B1: 213 (protein)
chain: STAIAQEGAGPAAILHPEKWPRPATQRLIDPAVEKRVDALLKQLSVEEKVGQVIQGDIGTITPEDLRKYPLGSILAGGDSGPNGDDRAPPKEWLDLADAFYRVSLEKRPGHTPIPVLFGIDAVHGHGNIGSATIFPHNIALGMTRDPELLRRIGEVTAEEMAATGIDWTFAPALSVVRDDRWGRTYEGFSEDPEIVASYSAAIVEGVQGKYGSKDFMAPGRIVASAKHFLADGGTDQGRDQGDARISEDELIRIHNAGYPPAIDAGVLTVMASFSSWQGIKHHGHKQLLTDVLKGQMGFNGFIVGDWNAHDQVPGCTKFNCPTSLIAGLDMYMAADSWKQLYENTLAQVKDGTIPMARLDDAVRRILRVKVLAGLFEKPAPKDRPGLPGLETLGSPEHRAVGREAVRKSLVLLKNDKGTLPLSPKARVLVAGDGADNIGKQSGGWTISWQGTGNRNDEFPGATSILGGIRDAVADAGGSVEFDVAGQYKTKPDVAIVVFGEEPYAEFQGDVETLEYQPDQKQDLALLKKLKDQGIPVVAVFLSGRPMWVNPELNASDAFVAAWLPGTEGGGVADVLFTDKAGKVQHDFAGKLSYSWPRTAAQTTVNRGDADYNPLFAYGYGLTYKDKSKVGTLPEESGVP
B2: 283 (protein)
chain: B1 chain with G10A, V371M
B3: 282 (protein)
chain: STAIAQEGAAPAAILHPEKWPRPATQRLIDPAVEKRVDALLKQLSVEEKVGQVIQGDIGTITPEDLRKYPLGSILAGGDSGPNGDDRAPPKEWLDLADAFYRVSLEKRPGHTPIPVLFGIDAVHGHGNIGSATIFPHNIALGMTRDPELLRRIGEVTAEEMAATGIDWTFAPALSVVRDDRWGRTYEGFSEDPEIVASYSAAIVEGVQGKYGSKDFMAPGRIVASAKHFLADGGTDQGRDQGDARCSEDELIRIHNAGYPPAIDAGVLTVMASFSSWQGIKHHGHKQLLTDVLKGQMGFNGFIVGDWNAHDQVPGCTKFNCPTSLIAGLDMYMAADSWKQLYENTLAQVKDGTIPMARLDDAVRRILRVKVLAGLFEKPAPKDRPGLPGLETLGSPEHRAVGREAVRKSLVLLKNDKGTLPLSPKARVLVAGDGADNIGKQSGGWTISWQGTGNRNDEFPGATSILGGIRDAVADAGGSVEFDVAGQYKTKPDVAIVVFGEEPYAEFQGDVETLEYQPDQKQDLALLKKLKDQGIPVVAVFLSGRPMWVNPELNASDAFVAAWLPGTEGGGVADVLFTDKAGKVQHDFAGKLSYSWPRTAAQTTVNRGDADYNPLFAYGYGLTYKDKSKVGTLPEESGVPAEARQNAGIYFRAGALRLPGRFL
B4: 278 (protein)
chain: STAIAQEGAAPAAMLHPEKWPRPATQRLIDPAVEKRVDALLKQLSVEEKVGQVIQGDIGTITPEDLRKYPLGSILAGGDSGPNGDDRAPPKEWLDLADAFYRVSLEKRPGHTPIPVLFGIDAVHGHGNIGSATIFPHNIALGMTRDPELLRRIGEVTAEEMAATGIDWTFAPALSVVRDDRWGRTYEGFSEDPEIVASYSPAIVEGVQGKYGSKDFMAPGRIVASAKHFLADGGTDQGRDQGDARISEDELIRIHNAGYPPAIDAGVLTVMASFSSWQGIKHHGHKQLLTDVLKGQMGFNGFIVGDWNAHDQVPGCTKFNCPTSLIAGLDMYMAADSWKQLYENTLAQVKDGTIPMARLDDAVRRILRVKVLAGLFEKPAPKDRPGLPGLETLGSPEHRAVGREAVRKSLVLLKNDKGTLPLSPKARVLVAGDGADNIGKQSGGWTISWQGTGNRNDEFPGATSILGGIRDAVADAGGSVEFDVAGQYKTKPDVAIVVFGEEPYAEFRGDVETLEYQPDQKQDLTLLKKLKDQGIPVVAVFLSGRPMWVNPELNASDAFVAAWLPGTEGGGVADVLFTDKAGKVQHDFAGKLSYSWPRTAAQTTVNRGDADYNPLFAYGYGLTYKDRSKVGTLPEESGVPAEARQN
B5: 121 (protein)
chain: B3 chain with D79N, M143A, D146S, E159V, A162T, A173C, S198A, A201P, Y211F, C246I
B6: 128 (protein)
chain: B3 chain with N128K, S198A, A201P, S225C, C246I
B7: 124 (protein)
chain: B3 chain with M143A, D146S, S198A, A201P, S225C, C246I, K339R
B8: 132 (protein)
chain: B3 chain with K91Q, N128K, M143A, D146S, E159V, S198A, A201P, I222A, S225C, C246I
B9: 126 (protein)
chain: B3 chain with E159V, A162T, S198A, A201P, Y211F, S225C, C246I, Q585R
B10: 130 (protein)
chain: B3 chain with A24V, D79N, S198A, A201P, I222S, S225C, C246I
B11: 133 (protein)
chain: B3 chain with N128K, F135L, E159V, A162T, A173C, Y211F, P219V, C246I
B12: 125 (protein)
chain: B3 chain with D79N, M143A, E159V, S198A, A201P, Y211F, I222S, S225C, C246I
B13: 122 (protein)
chain: B3 chain with N128K, M143A, S198A, A201P, P219V, S225C, C246I
B14: 127 (protein)
chain: B3 chain with M143A, D146S, E159V, S198A, A201P, I222S, S225C, C246I
B15: 129 (protein)
chain: B3 chain with M143A, A162T, S198A, A201P, Y211F, S225C, C246I, I535V
B16: 131 (protein)
chain: B3 chain with D79N, N128K, M143A, A173C, S198A, Y211F, C246I
B17: 123 (protein)
chain: B3 chain with N128K, E159V, A162T, S198A, A201P, P219V, C246I

Test: High throughput cellobiose assay: fold improvement in cellobiase activity of CelA variants over a control enzyme (Tables 2A-2D, 3, 5, 6, 7)
Type: biochemical
Settings: 3.3 g/l cellobiose, 55° C. and pH 5.3 (incubation overnight)

Molecule | Fold improvement over Control Variant No. 94 from Table 2B
B1 | ++++ (++++ = 1.1 to 1.5 fold improvement over Control No. 3, Variant No. 94)
B2 | ++++ (++++ = 1.1 to 1.5 fold improvement over Control No. 3, Variant No. 94)
B3 | ++++ (++++ = 1.1 to 1.5 fold improvement over Control No. 3, Variant No. 94)
B4 | ++++ (++++ = 1.1 to 1.5 fold improvement over Control No. 3, Variant No. 94)

Same assay, conditions: 3.3 g/l cellobiose, 55° C. and pH 6.0

Molecule | Fold improvement over Control Variant No. 5 from Table 2A
B5 | ++ (++ = 1.1 to 6 fold improvement over control Variant No. 2)
B6 | +++ (+++ = 6 to 13 fold improvement over control Variant No. 2)
B7 | +++ (+++ = 6 to 13 fold improvement over control Variant No. 2)
B8 | +++ (+++ = 6 to 13 fold improvement over control Variant No. 2)
B9 | ++ (++ = 1.1 to 6 fold improvement over control Variant No. 2)
B10 | +++ (+++ = 6 to 13 fold improvement over control Variant No. 2)
B11 | ++ (++ = 1.1 to 6 fold improvement over control Variant No. 2)
B12 | +++ (+++ = 6 to 13 fold improvement over control Variant No. 2)
B13 | +++ (+++ = 6 to 13 fold improvement over control Variant No. 2)
B14 | +++ (+++ = 6 to 13 fold improvement over control Variant No. 2)
B15 | +++ (+++ = 6 to 13 fold improvement over control Variant No. 2)
B16 | ++ (++ = 1.1 to 6 fold improvement over control Variant No. 2)
B17 | ++ (++ = 1.1 to 6 fold improvement over control Variant No. 2)
